The text below walks through data of PMC5344419, “The structure of FKBP38 in complex with the MEEVD tetratricopeptide binding-motif of Hsp90” (PLoS ONE, 2017).

One data set has as its system yeast Hsp90. Also on record: method as in 2 sources, ref [41] = [41]; PMID 12504007; doi:10.1016/s1097-2765(02)00785-2; 41 Panaretou B , Siligardi G , Meyer P , Maloney A , Sullivan JK , Singh S , et al Activation of the ATPase activity of hsp90 by the stress-regulated cochaperone aha1 . Mol Cell . 2002; 10 ( 6 ): 130 ||| ref [42] = [42]; PMID 9927435; doi:10.1093/emboj/18.3.754; 42 Prodromou C , Siligardi G , O'Brien R , Woolfson DN , Regan L , Panaretou B , et al Regulation of Hsp90 ATPase activity by tetratricopeptide repeat (TPR)-domain co-chaperones . Embo J . 1999; 18. The conditions noted are these: cited from earlier work.

The target in data set [1] is T1, FKBP^1-380 (Homo sapiens, UniProt Q14318).
T1 construct: representing amino acids 1–380 and lacking the C-terminal trans-membrane helix; made in house; host or cells: E. coli BL21 (DE3)
T1 sequence (Q14318 1-380): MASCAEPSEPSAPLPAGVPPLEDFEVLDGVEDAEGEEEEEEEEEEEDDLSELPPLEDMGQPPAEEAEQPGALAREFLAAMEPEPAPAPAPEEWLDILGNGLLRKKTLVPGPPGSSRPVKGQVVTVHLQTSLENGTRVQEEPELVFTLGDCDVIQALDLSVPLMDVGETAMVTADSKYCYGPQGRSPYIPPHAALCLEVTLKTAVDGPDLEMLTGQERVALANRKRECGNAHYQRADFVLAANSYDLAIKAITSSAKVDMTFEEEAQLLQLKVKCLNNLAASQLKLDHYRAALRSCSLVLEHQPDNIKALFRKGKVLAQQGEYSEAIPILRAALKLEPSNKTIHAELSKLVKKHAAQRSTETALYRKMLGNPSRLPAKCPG
The data set can be described thus: Isothermal titration calorimetry (ITC), binding to FKBP^1-380 (FKBP8 isoform lacking the transmembrane domain). As to conditions: ITC (ITC200); intact protein or domain fragment; 20 mM Tris, 300 mM NaCl, 1mM EDTA pH 7.5; method: 700 to 800 μM FKBP injected into 50 μM Hsp90; Fig 2 picture: Hsp90β into FKBP^1-380 (panel C). From the text: (§1) FKBP8 (FKBP^1-380) was cloned as an NdeI-HindIII fragment representing amino acids 1–380 and lacking the C-terminal trans-membrane helix into pDMXV4 with a non-cleavable C-terminal His6-Tag (Fig 1). The FKBP38 immunophilin domain, representing amino acids 92–207 (FKBP^92-207), and a larger fragment containing both the immunophilin and TPR domain (FKBP^92-380) were also cloned in pDMXV4 (Fig 1). The K307E mutation was generated in the FKBP8^92-380 construct by PCR mutagenesis. Full-length human Hsp90β, human Hsp70, two middle domain human fragments (Hsp90β^295–689 and Hsp90β^295–724) and a yeast C-terminal fragment of Hsp90 (yHsp90^546-709) were expressed from pRSETA as His-tagged fusions. The Hsp90α^464–732 construct was expressed from p2E (A. Oliver, University of Sussex), as a PreScission cleavable His-tagged fusion. […]
(§2) Proteins were dialysed overnight into 20 mM Tris, 300 mM NaCl, 1mM EDTA pH 7.5. The heat of interaction was measured on an ITC200 microcalorimeter (Microcal), with a cell volume of 200 μL, under the same buffer conditions. […] Heats of dilution were determined in a separate experiment by diluting protein into buffer, and the corrected data were fitted using a non-linear least-squares curve-fitting algorithm (Microcal Origin) with three floating variables: stoichiometry, binding constant and change in enthalpy of interaction.
For orientation: ITC needs no label: the signal is the heat of the interaction.

The target of data set [2] is FKBP^92-380. Briefly: Isothermal titration calorimetry (ITC), binding to FKBP^92-380 (FKBP38 isoform). As to conditions: ITC (ITC200); 20 mM Tris, 300 mM NaCl, 1mM EDTA pH 7.5; 700 to 800 μM FKBP^92-380 injected into 50 μM intact Hsp90β.
Source text: as §1, §2

The subject of another data set is FKBP^92-207. The data set can be described thus: Isothermal titration calorimetry (ITC), binding to the immunophilin domain alone. As to conditions: full-length Hsp90β, 20 mM Tris, 300 mM NaCl, 1mM EDTA pH 7.5, 700 to 800 μM FKBP^92-207 injected into 50 μM Hsp90β.
Source text: as §1, §2

Data set [3] deals with K307E mutant of FKBP^92-380. The data set can be described thus: Isothermal titration calorimetry (ITC), binding to the K307E carboxylate clamp mutant. As to conditions: 20 mM Tris, 300 mM NaCl, 1mM EDTA pH 7.5, 700 to 800 μM mutant injected into 50 μM yeast Hsp90^546-709.
Source text: as §1, §2

Data set [4] concerns FKBP^92-380. Briefly: Analytical gel-filtration chromatography, co-migration with FKBP^92-380. The data set is classed as binding. The conditions noted are these: Superdex 200; equimolar mixture; 50 mM Tris, 300 mM NaCl, 1 mM EDTA, 0.5 mM TCEP, pH 7.5. On the procedure: Equimolar concentrations of the C-terminal fragment of yHsp90^546-709 and FKBP^92-380 were mixed and loaded onto an analytical Superdex 200 column equilibrated in 50 mM Tris, 300 mM NaCl, 1 mM EDTA and 0.5 mM TCEP at pH 7.5.

Data set [5] addresses T1, FKBP^1-380. Briefly: Gel-filtration chromatography, co-migration with FKBP^1-380 (as in the legend of Fig 2L). It is filed as binding. The conditions noted are these: Fig 2L legend: yHsp90^546-709, FKBP^1-380 and their mixture; Superdex 200, pH 7.5.

Entries after “also recorded” stand apart in the source; their conditions may differ. Read-outs that look alike come from different tables or passages of the source.

For Cpr6: yeast peptidyl-propyl isomerase, the “effect on ATPase activity of yeast Hsp90” value in the data set on yeast Hsp90 (peptidyl-propyl isomerase Cpr6, previous studies, ref [41]) is “weakly activates”.
Usually Kd stands for the constant that tells how readily two partners part at equilibrium. Higher therefore signals a looser complex. Regarding “Hsp90β: Full-length human Hsp90β, expressed as His-tagged fusion”, the Kd came to 2800 ± 100 nM with FKBP^1-380 [1] and 2600 ± 200 nM at FKBP^92-380 [2]. Besides, the “binding (in words)” value in the data set on FKBP^92-207 is “failed to bind”.
As to “Hsp90β^295-724: fragment representing the middle and C-terminal domain of Hsp90β”, the Kd with FKBP^1-380 [1] turned out to be 6400 ± 500 nM.
Take “Sti1: TPR domain protein Sti1 (HOP in humans)”: the “effect on ATPase activity of yeast Hsp90” value in the data set on yeast Hsp90 (TPR domain protein Sti1 (HOP in humans), previous studies, ref [42]) is reported as “inhibit; also recorded: strong inhibitor”.
In the case of “yHsp90^546-709: yeast C-terminal fragment of Hsp90”, the “binding (in words)” value in data set [3] is given as “failed to bind”. Also, the “co-migration in gel filtration” value with FKBP^92-380 [4] is given as “co-migrated”; in the data set with FKBP^1-380 [5], “co-migrate as a complex”.
